According to doi:10.1101/2022.02.15.480544 (bioRxiv, 2022):

Biological target: the molecule itself
Assay: mass photometry

| Protein | stoichiometry N |
| --- | --- |
| Bacillus subtilis RecA, wild type, hexa-histidine fusion (natural protein, B. subtilis, UniProt P16971 11-348, looked up) ALKQIEKQFGKGSIMKLGEKTDTRISTVPSGSLALDTALGIGGYPRGRIIEVYGPESSGKTTVALHAIAEVQQQGGQAAFIDAEHALDPVYAQKLGVNIEELLLSQPDTGEQALEIAEALVRSGAVDIVVVDSVAALVPKAEIEGDMGDSHVGLQARLMSQALRKLSGAINKSKTIAIFINQIREKVGVMFGNPETTPGGRALKFYSSVRLEVRRAEQLKQGNDVMGNKTKIKVVKNKVAPPFRTAEVDIMYGEGISKEGEIIDLGTELDIVQKSGSWYSYEEERLGQGRENAKQFLKENKDIMLMIQEQIREHYGLDNNGVVQQQAEETQEELEFEE | 2 |
| Bacillus subtilis RecA K70A (Walker A mutant, lowered ATP binding), hexa-histidine fusion (natural protein, B. subtilis, UniProt P16971 11-348, looked up) ALKQIEKQFGKGSIMKLGEKTDTRISTVPSGSLALDTALGIGGYPRGRIIEVYGPESSGATTVALHAIAEVQQQGGQAAFIDAEHALDPVYAQKLGVNIEELLLSQPDTGEQALEIAEALVRSGAVDIVVVDSVAALVPKAEIEGDMGDSHVGLQARLMSQALRKLSGAINKSKTIAIFINQIREKVGVMFGNPETTPGGRALKFYSSVRLEVRRAEQLKQGNDVMGNKTKIKVVKNKVAPPFRTAEVDIMYGEGISKEGEIIDLGTELDIVQKSGSWYSYEEERLGQGRENAKQFLKENKDIMLMIQEQIREHYGLDNNGVVQQQAEETQEELEFEE | 2 |
| Bacillus subtilis RecA K70R (Walker A mutant, no ATPase activity), hexa-histidine fusion (natural protein, B. subtilis, UniProt P16971 11-348, looked up) ALKQIEKQFGKGSIMKLGEKTDTRISTVPSGSLALDTALGIGGYPRGRIIEVYGPESSGRTTVALHAIAEVQQQGGQAAFIDAEHALDPVYAQKLGVNIEELLLSQPDTGEQALEIAEALVRSGAVDIVVVDSVAALVPKAEIEGDMGDSHVGLQARLMSQALRKLSGAINKSKTIAIFINQIREKVGVMFGNPETTPGGRALKFYSSVRLEVRRAEQLKQGNDVMGNKTKIKVVKNKVAPPFRTAEVDIMYGEGISKEGEIIDLGTELDIVQKSGSWYSYEEERLGQGRENAKQFLKENKDIMLMIQEQIREHYGLDNNGVVQQQAEETQEELEFEE | 2 |
